Assay results as given in publication PMC8064889 (2021).

Target: SARS-CoV-2 RBD, His6-tagged, for biolayer interferometry (SARS-CoV-2, UniProt P0DTC2 319-541)
Assay: BLI

B1: 47D1 Fab (Fab, V domains shown)
VH: QVQLVQSGAEVKKPGSSVRVSCKASGGTFSTYPISWVRQAPGQGLEWMGGIIPIFGTAKSAQKFQGRVTITADEFTSTAYMEMSSLRSEDTAMYYCAREGRRYGSGWYISTGYFDYWGQGTLVTVSS
VL: QLVLTQPASVSGSPGQSIIVSCTGTSSDVGGYKFVSWYQQHPGKAPRVMIYDVSNRPSGVSNRFSGSKSGNTASLTISGLQADDEADYYCSSYTNSSTVVFGGGTKVTVL
**Q.** With B1 as the binder, how does the Kd read?
**A.** Its Kd is 2 nM.
